Results on 125 sequences are retold here after the supplement of paper PMC9112550, “Optimization of the antimicrobial peptide Bac7 by deep mutational scanning” (BMC Biology, 2022).
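Note: peptides expressed intracellularly from a pBAD plasmid library in pooled LB shake-flask culture, induced with 0.3% L-arabinose, DNA abundance read by NGS, three biological replicates, DESeq2 with apeglm shrinkage.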

The series has as its system Escherichia coli TOP10. Briefly: shrunken log2 fold change of peptide-encoding DNA abundance (4.5 h post-induction vs induction); higher = less antimicrobial activity (less host growth inhibition). The following applies: time post-induction: 4.5 h; library: site-saturation at positions 5, 18, 19, 20.
RRIRDRPPRLPRPRPRPEPGPRP: the “shrunken log2 fold change” value was 0.707.
Turning to RRIRIRPPRLPRPRPRPSIQPRP, the “shrunken log2 fold change” value is -0.252.
With RRIRNRPPRLPRPRPRPAEYPRP, the “shrunken log2 fold change” value was 0.0714.
As for RRIRNRPPRLPRPRPRPHCRPRP, the “shrunken log2 fold change” value worked out at 0.00914.
On to RRIRSRPPRLPRPRPRPLYYPRP, for which the “shrunken log2 fold change” value is -0.547.
Take RRIRHRPPRLPRPRPRPYRVPRP: the “shrunken log2 fold change” value was -0.0718.
For RRIRIRPPRLPRPRPRPEAKPRP, the “shrunken log2 fold change” value turned out to be 0.0733.
On to RRIRARPPRLPRPRPRPGNCPRP, for which the “shrunken log2 fold change” value was 0.061.
Next, RRIRGRPPRLPRPRPRPYLHPRP: -0.385.
Take RRIRIRPPRLPRPRPRPHYPPRP: the “shrunken log2 fold change” value is -0.32.
Next, RRIRRRPPRLPRPRPRPLQSPRP: 0.242; RRIRVRPPRLPRPRPRPYEFPRP: 2.15; RRIRHRPPRLPRPRPRPDFFPRP: -0.26.
Next, RRIRGRPPRLPRPRPRPRLNPRP: 0.57.
As to RRIRVRPPRLPRPRPRPLNAPRP, the “shrunken log2 fold change” value was -0.331.
Next, RRIRNRPPRLPRPRPRPFHNPRP: -0.12; RRIRERPPRLPRPRPRPAMYPRP: -0.205.
In the case of RRIRLRPPRLPRPRPRPIKFPRP, the “shrunken log2 fold change” value is -0.0676.
The figure for RRIRARPPRLPRPRPRPRWKPRP is 0.462; for RRIRNRPPRLPRPRPRPCLHPRP it is -0.888; for RRIRDRPPRLPRPRPRPLWIPRP it is -0.421.
With RRIRQRPPRLPRPRPRPGRIPRP, the “shrunken log2 fold change” value was -0.123.
Turning to RRIRGRPPRLPRPRPRPPQTPRP, the “shrunken log2 fold change” value was found to be 1.31.
The figure for RRIRVRPPRLPRPRPRPKPNPRP is 0.275.
In the case of RRIRLRPPRLPRPRPRPIWQPRP, the “shrunken log2 fold change” value was 0.0488.
The figure for RRIRGRPPRLPRPRPRPVFDPRP is 0.39; for RRIRVRPPRLPRPRPRPWIVPRP it is -0.266; for RRIRDRPPRLPRPRPRPILNPRP it is -0.184.
The figure for RRIRIRPPRLPRPRPRPNTGPRP is -0.663; for RRIRQRPPRLPRPRPRPALQPRP it is 0.145; for RRIRDRPPRLPRPRPRPWRVPRP it is 0.28.
Next, RRIRRRPPRLPRPRPRPGYEPRP: 0.0872; RRIRQRPPRLPRPRPRPDWKPRP: 0.0112; RRIRPRPPRLPRPRPRPIREPRP: 0.31.
Regarding RRIRERPPRLPRPRPRPDICPRP, the “shrunken log2 fold change” value was -0.553.
Turning to RRIRVRPPRLPRPRPRPVPEPRP, the “shrunken log2 fold change” value was 0.564.
The figure for RRIRKRPPRLPRPRPRPRTSPRP is 0.525; for RRIRVRPPRLPRPRPRPPPEPRP it is 0.755; for RRIRKRPPRLPRPRPRPQYNPRP it is -0.67.
With RRIRERPPRLPRPRPRPIKIPRP, the “shrunken log2 fold change” value was -0.681.
The figure for RRIRWRPPRLPRPRPRPFQKPRP is 0.0262.
The figure for RRIRCRPPRLPRPRPRPIIKPRP is -1.01; for RRIRIRPPRLPRPRPRPPWHPRP it is -0.126.
On to RRIRNRPPRLPRPRPRPWLKPRP, for which the “shrunken log2 fold change” value was -0.0113.
Regarding RRIRVRPPRLPRPRPRPMCDPRP, the “shrunken log2 fold change” value was -0.0462.
Regarding RRIRDRPPRLPRPRPRPIPAPRP, the “shrunken log2 fold change” value is 0.0318.
RRIRDRPPRLPRPRPRPIYEPRP: the “shrunken log2 fold change” value amounted to 0.0032.
In the case of RRIRQRPPRLPRPRPRPPRKPRP, the “shrunken log2 fold change” value worked out at 0.835.
The figure for RRIRERPPRLPRPRPRPHQKPRP is -0.0694.
Next, RRIRGRPPRLPRPRPRPRNEPRP: 0.725.
In the case of RRIRSRPPRLPRPRPRPFHHPRP, the “shrunken log2 fold change” value was -0.804.
The figure for RRIRQRPPRLPRPRPRPDFQPRP is -0.0253.
Turning to RRIRHRPPRLPRPRPRPVCNPRP, the “shrunken log2 fold change” value was -0.761.
For RRIRIRPPRLPRPRPRPHVMPRP, the “shrunken log2 fold change” value is -0.492.
RRIRMRPPRLPRPRPRPIVDPRP: the “shrunken log2 fold change” value turned out to be 0.35.
In the case of RRIRMRPPRLPRPRPRPIVHPRP, the “shrunken log2 fold change” value is -0.289.
Consider RRIRKRPPRLPRPRPRPRTCPRP, for which the “shrunken log2 fold change” value is -0.202.
Next, RRIRRRPPRLPRPRPRPEDKPRP: 0.103; RRIRTRPPRLPRPRPRPSADPRP: -0.0419; RRIRNRPPRLPRPRPRPKDEPRP: 0.536.
In the case of RRIRMRPPRLPRPRPRPIVQPRP, the “shrunken log2 fold change” value was -0.0131.
RRIRMRPPRLPRPRPRPCESPRP: the “shrunken log2 fold change” value was -0.0088.
Next, RRIRDRPPRLPRPRPRPFFTPRP: -0.024; RRIRARPPRLPRPRPRPMVQPRP: -0.081.
Next, RRIRIRPPRLPRPRPRPCNYPRP: -0.103; RRIRMRPPRLPRPRPRPIWFPRP: 0.1; RRIRLRPPRLPRPRPRPMEIPRP: -0.00427.
The figure for RRIRSRPPRLPRPRPRPQVWPRP is 0.675.
As for RRIRLRPPRLPRPRPRPLELPRP, the “shrunken log2 fold change” value is -0.0406.
Next, RRIRQRPPRLPRPRPRPMLHPRP: -0.0433; RRIRDRPPRLPRPRPRPAITPRP: 0.284; RRIRIRPPRLPRPRPRPCYWPRP: -0.131.
Consider RRIRVRPPRLPRPRPRPSVTPRP, for which the “shrunken log2 fold change” value is -0.222.
Next, RRIRDRPPRLPRPRPRPFPIPRP: 0.0144.
Next, RRIRYRPPRLPRPRPRPIKCPRP: -0.00104.
Regarding RRIRDRPPRLPRPRPRPQWYPRP, the “shrunken log2 fold change” value was -0.45.
Turning to RRIRIRPPRLPRPRPRPVFTPRP, the “shrunken log2 fold change” value was -0.305.
Next, RRIRYRPPRLPRPRPRPNWLPRP: -0.226.
In the case of RRIRYRPPRLPRPRPRPENVPRP, the “shrunken log2 fold change” value is -0.00208.
Next, RRIRARPPRLPRPRPRPKRAPRP: 0.65; RRIRHRPPRLPRPRPRPNMWPRP: -0.799.
On to RRIRDRPPRLPRPRPRPDLPPRP, for which the “shrunken log2 fold change” value turned out to be 0.337.
Take RRIRFRPPRLPRPRPRPVLTPRP: the “shrunken log2 fold change” value is -0.213.
The figure for RRIRRRPPRLPRPRPRPDCKPRP is -0.176; for RRIRTRPPRLPRPRPRPNTSPRP it is -0.43; for RRIRKRPPRLPRPRPRPKPSPRP it is 0.743.
Regarding RRIRHRPPRLPRPRPRPPRRPRP, the “shrunken log2 fold change” value is 0.452.
The figure for RRIRPRPPRLPRPRPRPDPDPRP is -0.0832; for RRIRQRPPRLPRPRPRPHTCPRP it is -0.325; for RRIRNRPPRLPRPRPRPCYAPRP it is -0.424.
The figure for RRIRRRPPRLPRPRPRPFMSPRP is -0.327; for RRIRVRPPRLPRPRPRPVESPRP it is -0.0208.
RRIRHRPPRLPRPRPRPADIPRP: the “shrunken log2 fold change” value was -0.102.
Turning to RRIRYRPPRLPRPRPRPQFVPRP, the “shrunken log2 fold change” value turned out to be 0.119.
The figure for RRIRKRPPRLPRPRPRPANVPRP is -0.196; for RRIRFRPPRLPRPRPRPMDFPRP it is -0.00674; for RRIRERPPRLPRPRPRPLIAPRP it is -0.128.
The figure for RRIRDRPPRLPRPRPRPEQNPRP is 0.517; for RRIRWRPPRLPRPRPRPGTWPRP it is 0.0354.
Next, RRIRKRPPRLPRPRPRPKNCPRP: 0.0646; RRIRERPPRLPRPRPRPDRGPRP: 0.0208; RRIRCRPPRLPRPRPRPNHDPRP: -0.589.
Turning to RRIRMRPPRLPRPRPRPCGIPRP, the “shrunken log2 fold change” value was -0.0517.
Next, RRIRCRPPRLPRPRPRPNLMPRP: -0.323.
In the case of RRIRWRPPRLPRPRPRPTTWPRP, the “shrunken log2 fold change” value was 0.297.
Next, RRIRPRPPRLPRPRPRPQGKPRP: -0.198.
The figure for RRIRLRPPRLPRPRPRPEAYPRP is 0.0406; for RRIRQRPPRLPRPRPRPNCNPRP it is -0.882; for RRIRCRPPRLPRPRPRPCQYPRP it is 0.0234.
As to RRIRSRPPRLPRPRPRPDDFPRP, the “shrunken log2 fold change” value is -0.151.
The figure for RRIRLRPPRLPRPRPRPIQIPRP is 0.03; for RRIRDRPPRLPRPRPRPVYCPRP it is -0.115; for RRIRGRPPRLPRPRPRPAWVPRP it is 0.456.
Take RRIRCRPPRLPRPRPRPQVGPRP: the “shrunken log2 fold change” value was -0.0906.
The figure for RRIRWRPPRLPRPRPRPIYAPRP is -0.0827; for RRIRWRPPRLPRPRPRPENDPRP it is -0.0396; for RRIRCRPPRLPRPRPRPLMSPRP it is -0.289.
The figure for RRIRVRPPRLPRPRPRPWPLPRP is -0.183; for RRIRPRPPRLPRPRPRPCGLPRP it is 0.148.
The figure for RRIRCRPPRLPRPRPRPATPPRP is 1.34; for RRIRYRPPRLPRPRPRPLRSPRP it is 0.538; for RRIRSRPPRLPRPRPRPYERPRP it is -0.0323.
Take RRIRYRPPRLPRPRPRPLRWPRP: the “shrunken log2 fold change” value is 0.184.
RRIRGRPPRLPRPRPRPEFAPRP: the “shrunken log2 fold change” value came out at 1.22.
Turning to RRIRVRPPRLPRPRPRPSGQPRP, the “shrunken log2 fold change” value came out at 0.0937.
